This is an account of results in patent US12138316B2, “Anti-B7H3 antibody-drug conjugate and use thereof” (Duality Biologics (Suzhou) Co., Ltd., priority 2023, dated 2024).

A short description of data set [1]: Pharmacokinetic study, single intravenous infusion in cynomolgus monkeys. The following applies: both sexes, cynomolgus monkey, in vivo. As to the method:
18 cynomolgus monkeys (half female and half male) were weighed one day before administration, stratified based on the weight, and then randomly divided into 3 groups (3 females and 3 males/group): a low dose group (1 mg/kg), a medium dose group (3 mg/kg), and a high dose group (10 mg/kg). […] Blood was collected from the forelimb veins of cynomolgus monkeys in each group, and treated samples of the blood collected at 0 h before and 0.5 […], and 672 h after the administration were used as PK samples. After the blood collection at each time point was completed, serum was obtained by centrifugation for sample analysis.

Another data set concerns the target T1, human B7H3 (Homo sapiens, UniProt Q5ZPR3).
T1 construct: MCF-7 cells expressing human full-length B7H3; host or cells: MCF-7
T1 sequence (Q5ZPR3 29-534): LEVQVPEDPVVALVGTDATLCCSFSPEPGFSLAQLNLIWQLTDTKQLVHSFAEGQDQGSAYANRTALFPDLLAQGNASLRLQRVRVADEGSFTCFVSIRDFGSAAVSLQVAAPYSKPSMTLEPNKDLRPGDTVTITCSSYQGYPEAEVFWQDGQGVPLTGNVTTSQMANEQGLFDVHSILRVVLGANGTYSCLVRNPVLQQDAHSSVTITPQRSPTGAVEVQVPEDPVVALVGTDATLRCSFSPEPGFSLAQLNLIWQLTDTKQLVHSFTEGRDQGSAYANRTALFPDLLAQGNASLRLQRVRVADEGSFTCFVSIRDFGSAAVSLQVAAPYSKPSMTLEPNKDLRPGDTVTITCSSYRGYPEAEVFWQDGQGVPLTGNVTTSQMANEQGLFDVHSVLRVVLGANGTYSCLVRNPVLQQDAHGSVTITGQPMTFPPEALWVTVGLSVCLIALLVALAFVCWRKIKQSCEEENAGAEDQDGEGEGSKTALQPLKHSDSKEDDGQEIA
The experiment in a line: FACS binding to human B7H3-expressing cells MCF-7. On the procedure: (§1) FACS was used to detect the binding of antibodies to human B7H3. This method allows quantitative analysis and identification of specific molecules expressed on the surface of living cells. Unlabeled cells were used as a control to set a threshold before the assay, and the percentage change for each group that exceeded the fluorescence intensity threshold was analyzed. MCF-7 cells expressing human full-length B7H3 (1×10^5 cells/well) were incubated with various concentrations of antibodies (3.16-fold serially diluted with 1×DPBS/1% BSA from 50 nM to 0.0005 nM) in a volume of 100 μL/well in a refrigerator set to 4° C. for 1 h. Anti-human B7H3 reference antibody enoblituzumab (MacroGeneics) was used as a positive control. Human IgG1 isotype antibody was used as a negative control. After washing the cells with 1×DPBS/1% BSA, Alexa 647 goat anti-human antibody (diluted in a 1:500 ratio in 1×DPBS/1% BSA) was added. The cells were incubated in a refrigerator set to 4° C. for 0.5 h in the dark. The mean fluorescence intensity (MFI) of the cells was measured by a flow cytometry and analyzed by FlowJo. EC50 values were calculated by four-parameter non-linear regression analysis using GraphPad Prism 7 software.
(In general: A flow cytometer gives signals particle by particle.)

Data set [2] relates to cynomolgus monkey B7H3. The experiment in a line: FACS binding to cynomolgus monkey B7H3-transfected stable cell pool. On the procedure:
as §1, with “to cynomolgus monkey” for “to human”, “B7H3. FlpinCHO” for “B7H3. This method allows quantitative analysis and identification of specific molecules expressed on the surface of living cells. Unlabeled”, “were transfected with cynomolgus monkey B7H3 (W3XX088-FlpinCHO.cProl.pool) (1×10^5 cells/well),” for “were used as a control to set a threshold before the assay,”, “the transfected” for “the percentage change for each group that exceeded the fluorescence intensity threshold was analyzed. MCF-7”, “cells” for “cells expressing human full-length B7H3 (1×10^5 cells/well)”

In the next data set the target is T2, human 4IgB7H3 (Homo sapiens, UniProt Q5ZPR3).
T2 construct: Uniprot ID: Q5ZPR3, amino acids 29-461; made in house; host or cells: Expi293F
T2 sequence (Q5ZPR3 29-461): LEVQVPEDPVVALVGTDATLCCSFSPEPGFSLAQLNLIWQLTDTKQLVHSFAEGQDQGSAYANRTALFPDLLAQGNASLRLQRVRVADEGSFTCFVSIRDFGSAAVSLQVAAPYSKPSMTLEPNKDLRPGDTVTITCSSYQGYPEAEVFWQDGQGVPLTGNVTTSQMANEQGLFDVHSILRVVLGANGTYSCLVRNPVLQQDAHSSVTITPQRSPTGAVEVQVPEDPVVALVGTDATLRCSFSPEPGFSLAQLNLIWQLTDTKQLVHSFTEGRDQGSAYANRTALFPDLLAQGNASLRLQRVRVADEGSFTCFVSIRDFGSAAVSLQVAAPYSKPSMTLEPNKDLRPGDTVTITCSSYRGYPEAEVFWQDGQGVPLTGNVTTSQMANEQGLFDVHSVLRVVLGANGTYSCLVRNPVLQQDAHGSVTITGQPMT
The experiment in a line: Binding affinity for human 4IgB7H3 (SPR). As to the method: (§2) The affinity of antibodies for human 4IgB7H3 was determined using surface plasmon resonance (SPR). The affinity of antibodies for human 4IgB7H3 was determined by Biacore 8K. An activator was prepared by mixing 400 mM EDC and 100 mM NHS (GE) immediately prior to injection into the channel. The CM5 sensor chip was activated for 420 seconds with the activator. Goat anti-human Fc IgG (30 μg/mL in 10 mM NaAc, pH 4.5) was then injected into the channel at a flow rate of 10 μL/min for 420 seconds. The chip was deactivated by 1 M ethanolamine hydrochloric acid. The antibodies diluted in running buffer (1×HBS-EP+) were injected into the channel at a flow rate of 10 μL/min for 30 seconds. Seven concentrations (100 nM, 50 nM, 25 nM, 12.5 nM, 6.25 nM, 2.125 nM, and 1.563 nM) of analyte human 4IgB7H3 were injected sequentially into the channel at a flow rate of 30 μL/min for an association phase of 180 seconds, followed by dissociation of 3600 seconds. Glycine (10 mM, pH 1.5) was injected as regeneration buffer after the dissociation phase.
The sensorgrams for the reference channel and the buffer channel were subtracted from the test sensorgrams. The experimental data were fitted with a 1:1 binding model. The molecular weight of the human 4IgB7H3 used in the calculation was 47.8 kDa.

The target of the next data set is T3, human 2IgB7H3 (Homo sapiens, UniProt Q5ZPR3).
T3 construct: His tag; purchased ACROBiosystems B73-H52E2
T3 sequence (Q5ZPR3 29-316 isoform Q5ZPR3-2 limits assumed): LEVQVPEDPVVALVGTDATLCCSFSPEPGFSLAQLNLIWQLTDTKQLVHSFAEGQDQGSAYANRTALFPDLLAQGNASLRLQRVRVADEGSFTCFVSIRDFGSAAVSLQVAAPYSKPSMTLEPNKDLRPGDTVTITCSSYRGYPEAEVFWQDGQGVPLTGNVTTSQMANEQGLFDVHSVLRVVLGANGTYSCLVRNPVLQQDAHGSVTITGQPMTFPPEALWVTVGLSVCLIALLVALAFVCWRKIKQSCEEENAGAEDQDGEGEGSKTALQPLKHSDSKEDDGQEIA
The experiment in a line: Binding affinity for human 2IgB7H3 (SPR). As to the method: The affinity of antibodies for human 2IgB7H3 was determined using surface plasmon resonance (SPR). The affinity of antibodies for human 2IgB7H3 was determined by Biacore 8K. An activator was prepared by mixing 400 mM EDC and 100 mM NHS (GE) immediately prior to injection into the channel. The CM5 sensor chip was activated for 420 seconds with the activator. Goat anti-human Fc IgG (30 μg/mL in 10 mM NaAc, pH 4.5) was then injected into the channel at a flow rate of 10 μL/min for 420 seconds. The chip was deactivated by 1 M ethanolamine hydrochloric acid. The antibodies diluted in running buffer (1×HBS-EP+) were injected into the channel at a flow rate of 10 μL/min for 30 seconds. Seven concentrations (500 nM, 250 nM, 125 nM, 62.5 nM, 31.25 nM, 15.625 nM, and 7.813 nM) of analyte human 2IgB7H3 were injected sequentially into the channel at a flow rate of 30 μL/min for an association phase of 120 seconds, followed by dissociation of 300 seconds. Glycine (10 mM, pH 1.5) was injected as regeneration buffer after the dissociation phase.
The sensorgrams for the reference channel and the buffer channel were subtracted from the test sensorgrams. The experimental data were fitted with a 1:1 binding model. The molecular weight of the human 2IgB7H3 used in the calculation was 25.2 kDa.

Data set [3] relates to cynomolgus monkey B7H3. The experiment in a line: Binding affinity for cynomolgus monkey B7H3 (SPR). On the procedure: as §2, with “cynomolgus monkey B7H3” for “human 4IgB7H3”, “Seven concentrations (100 nM, 50 nM, 25 nM, 12.5 nM, 6.25 nM, 2.125 nM, and 1.563 nM) of analyte human 4IgB7H3 were injected sequentially into the channel at a flow rate of 30 μL/min for an association phase of 180 seconds, followed by dissociation of 3600 seconds.” left out
The sensorgrams for the reference channel and the buffer channel were subtracted from the test sensorgrams. The experimental data for 6 analyte concentrations (50 nM, 25 nM, 12.5 nM, 6.25 nM, 3.125 nM, and 1.563 nM) were fitted with a 1:1 binding model. The molecular weight of the cynomolgus monkey B7H3 used in the calculation was 49 kDa.

Data set [4] concerns human B7H3-expressing cells MCF-7. The experiment in a line: Internalization test (HCS) in MCF-7 cells. It is filed as cell-based. On the procedure:
Antibody internalization was determined by operetta CLS (PerkinElmer), a high-content imaging and analysis system that can collect and analyze images of samples at high speed and high sensitivity. MCF-7 cells expressing human full-length B7H3 (1.5×10^4 cells/well) were seeded into a 96-well clear bottom black plate pre-coated with 8 μg/mL poly-D-lysine. After incubation in an incubator set to 37° C., 5% CO2 overnight, various concentrations of the antibodies (3.16-fold serially diluted with 1×DPBS/1% BSA from 50 nM to 0.0005 nM) were incubated in a volume of 100 μL/well in a refrigerator set to 4° C. for 2 h. Anti-human B7H3 reference antibody enoblituzumab (MacroGeneics) was used as a positive control. Human IgG1 isotype antibody was used as a negative control. After washing the cells with 1×DPBS/1% BSA, Alexa 647 goat anti-human antibody (diluted in a 1:500 ratio in 1×DPBS/1% BSA) was added. The cells were incubated in a refrigerator set to 4° C. for 1 h in the dark. The cells were then washed once and resuspended in 1×DPBS/1% BSA at 37° C. for 2 h. […] The mean fluorescence intensity (MFI) of the cells was measured and analyzed by operetta CLS. EC50 values were calculated by four-parameter non-linear regression analysis using GraphPad Prism 7 software.

One may read the AUC(0-t) as the area under the concentration-time curve up to a stated or last time point. A word on the Cmax: it is the peak of the concentration-time curve. `CC[C@@]1(O)C(=O)OCc2c1cc1n(c2=O)Cc2c-1nc1cc(F)c(C)c3c1c2[C@@H](NC(=O)C[C@H](C)O)CC3` [P-III-30]: the figures for the AUC(0-t) in data set [1] (3 mg/kg) and in data set [1] (10 mg/kg) were 1.07 ng·h/mL and 44.5 ng·h/mL, respectively. For the same molecule, the Cmax in data set [1] (3 mg/kg) is 0.133 ng/mL; in data set [1] (10 mg/kg), 0.573 ng/mL.

B1: Enoblituzumab (MacroGenics): anti-B7H3 benchmark antibody (MacroGenics), SEQ ID NOs: 117 and 119 in U.S. 20120294796A1 (antibody, chains of the INN, looked up)
heavy: EVQLVESGGGLVQPGGSLRLSCAASGFTFSSFGMHWVRQAPGKGLEWVAYISSDSSAIYYADTVKGRFTISRDNAKNSLYLQMNSLRDEDTAVYYCGRGRENIYYGSRLDYWGQGTTVTVSSASTKGPSVFPLAPSSKSTSGGTAALGCLVKDYFPEPVTVSWNSGALTSGVHTFPAVLQSSGLYSLSSVVTVPSSSLGTQTYICNVNHKPSNTKVDKRVEPKSCDKTHTCPPCPAPELVGGPSVFLLPPKPKDTLMISRTPEVTCVVVDVSHEDPEVKFNWYVDGVEVHNAKTKPPEEQYNSTLRVVSVLTVLHQDWLNGKEYKCKVSNKALPAPIEKTISKAKGQPREPQVYTLPPSREEMTKNQVSLTCLVKGFYPSDIAVEWESNGQPENNYKTTPLVLDSDGSFFLYSKLTVDKSRWQQGNVFSCSVMHEALHNHYTQKSLSLSPG
light: DIQLTQSPSFLSASVGDRVTITCKASQNVDTNVAWYQQKPGKAPKALIYSASYRYSGVPSRFSGSGSGTDFTLTISSLQPEDFATYYCQQYNNYPFTFGQGTKLEIKRTVAAPSVFIFPPSDEQLKSGTASVVCLLNNFYPREAKVQWKVDNALQSGNSQESVTEQDSKDSTYSLSSTLTLSKADYEKHKVYACEVTHQGLSSPVTKSFNRGEC
For the molecule B1, the “Maximum MFI” value worked out at 4644 with human B7H3 and 19700 with cynomolgus monkey B7H3 [2]. For the same molecule, the “ka” value in the data set with human 4IgB7H3 was found to be 124000 M⁻¹ s⁻¹; with human 2IgB7H3, 64400 M⁻¹ s⁻¹; in the data set with cynomolgus monkey B7H3 [3] it was 185000 M⁻¹ s⁻¹. Further, the “kd (dissociation rate constant)” value with human 4IgB7H3 stood at 0.000126 s⁻¹; with human 2IgB7H3, 0.0168 s⁻¹; in the data set on cynomolgus monkey B7H3 [3], 8.14e-05 s⁻¹. Also, in data set [4], the “Antibody internalization Maximum MFI” value came to 39777.
